# Test results reported in publication doi:10.1101/2020.02.28.970509.
# B1: 118 nt ssDNA (ssDNA)
# DNA: GAATATAGTTTTTAGCTCAAAGTAAGTGAAGATAATTTAGAGAGTTGTAATGTGATATATGTGTATGAAAGATATAAGACTCAAAGTGAAAAGTTGTTAATGTGTGTAGATATGTTAA
# modifications: internal fluorescein-dT at position 37 (between S1 and S2)
# Key:
# Test in all cases: fluorescence anisotropy
# A3H Hap I K117E = A3H Hap I K117E (human, UniProt Q6NTF7 1-200, K117E)
# A3H Hap I K117E/K121E = A3H Hap I K117E/K121E (human, UniProt Q6NTF7 1-200, K117E;K121E)
# Sequence of A3H Hap I K117E/K121E (Q6NTF7 whole entry K117E/K121E): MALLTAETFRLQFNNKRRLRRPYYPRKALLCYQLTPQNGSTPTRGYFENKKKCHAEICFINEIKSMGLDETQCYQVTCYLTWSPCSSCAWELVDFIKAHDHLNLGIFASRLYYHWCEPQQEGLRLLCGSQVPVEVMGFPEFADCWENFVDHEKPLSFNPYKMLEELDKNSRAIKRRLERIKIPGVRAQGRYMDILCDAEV
# A3H Hap VII = A3H Hap VII (human, UniProt Q6NTF7 1-200, G105R)
# Sequence of A3H Hap VII (Q6NTF7 whole entry G105R): as the sequence (Q6NTF7 whole entry K117E/K121E) above, with G105R, E117K, E121K counted along it
# A3H Hap II = A3H Hap II (human, UniProt Q6NTF7 1-181, G105R;K121D;E178D)
# Sequence of A3H Hap II (Q6NTF7 1-181 G105R/K121D/E178D): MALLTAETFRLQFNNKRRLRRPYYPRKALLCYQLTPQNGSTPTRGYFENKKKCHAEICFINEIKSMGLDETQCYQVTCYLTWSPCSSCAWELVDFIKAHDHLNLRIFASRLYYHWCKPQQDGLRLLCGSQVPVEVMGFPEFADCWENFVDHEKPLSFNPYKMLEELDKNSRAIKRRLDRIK
# Sequence of A3H Hap I K117E (Q6NTF7 whole entry K117E): as the sequence (Q6NTF7 whole entry K117E/K121E) above, with E121K counted along it
binder,measurement,setting,value
B1,Kd,A3H Hap I K117E,3000 ± 1770 nM
same,Kd,A3H Hap I K117E/K121E,1240 ± 88 nM
same,Kd,A3H Hap VII,522 ± 4 nM
same,Kd,A3H Hap II,492 ± 28 nM
